# Target: Rac1 (human, UniProt P63000 1-189)
# Test: co-immunoprecipitation with anti-FGD5 antibody from lysates of FGD5 overexpressing HUVECs, western blot
# Method: GTP-RhoA, Rac1, and cdc42 activation levels were measured using the G-lisa detection system (Tebu-Bio, The Netherlands). For FGD5-protein complex co-immunoprecipitation, magnetic beads (Dynabeads, Invitrogen, The Netherlands) were coated and cross-linked with 2.5 μg anti-FGD5 antibody (Bioscience, The Netherlands) before immunoprecipitation overnight at 4° C. with protein cell lysates of transfected HUVECs (50 μg total protein of a volume of 100 μl incubation buffer). Beads were washed and the protein samples were eluted with eluation buffer (Invitrogen, The Netherlands) before analysis by western blot.
binder,measurement,value
"FYVE, RhoGEF and PH domain-containing 5 (FGD5) (enzyme, Guanine-nucleotide exchange factor; The co-IP used lysates of HUVECs transfected with adenovirus encoding human FGD5 cDNA; also called Ad-FGD5 transgene product) MFRGPKPPIAPKPRLTAPNEWRASVYLNDSLNKCSNGRLPCVDRGLDEGPRSIPKCSESETDEDYIVVPRVPLREDEPKDEGSVGNKALVSPESSAEEEEEREEGGEACGLEGTGAGEDSVAPAAPGAGALSREGEEGTDLALEDEGEGCADEPGTLEQVSRSEEEEKLVQPHRECSLEDSGPWAGEGVFQSDLLLPHIHGEDQEPPDTPGEAEEDDEEGCASTDPAGADEGSGPDRPTEDMGQDAEDTSEEPPEKEELAGVQEAETATDCPEVLEEGCEEATGVTGGEQVDLSEPPDHEKKTNQEVAAATLEDHAQDESAEESCQIVPFENDCMEDFVTSLTGSPYEFFPTESTSFCSESCSPLSESAKGLESEQAPKLGLRAEENPMVGALCGQCGSLQGGAAEGPAAPDVVVVLEEEALDDALANPYVMGVGLPGQAAPGEGGQAASDALGGYGSKEELNCEAEGGLVPADRKNTSTRVRPHSGKVAGYVPETVPEETGPEAGSSAPGIGGAAEEVGKTLLSLEGKPLEASRALPAKPRAFTLYPRSFSVEGREIPVSVYQEPEGSGLDDHRIKRKEDNLSLSCVIGSSGSFSQRNHLPSSGTSTPSSMVDIPPPFDLACITKKPITKSSPSLLIESDSPDKYKKKKSSFKRFLALTFKKKTENKLHVDVNVSSSRSSSESSYHGPSRILEVDRRSLSNSPQLKSRTGKLRASESPSSLIFYRDGKRKGVPFSRTVSRVESFEDRSRPPFLPLPLTKPRSISFPSADTSDYENIPAMNSDYENIQIPPRRPARAGAFTKLFEDQSRALSTANENDGYVDMSSFNAFESKQQSADQDAESAYTEPYKVCPISSAAPKEDLTSDEEQRSSEEEDSASRDPSVTHKVEGQSRALVIAQELLSSEKAYVEMLQHLNLDFHGAVMRALDDMDHEGRDTLAREELRQGLSELPAIHDLHQGILEELEERLSNWESQQKVADVFLAREQGFDHHATHILQFDRYLGLLSENCLHSPRLAAAVREFEQSVQGGSQTAKHRLLRVVQRLFQYQVLLTDYLNNLCPDSAEYDNTQGALSLISKVTDRANDSMEQGENLQKLVHIEHSVRGQGDLLQPGREFLKEGTLMKVTGKNRRPRHLFLMNDVLLYTYPQKDGKYRLKNTLAVANMKVSRPVMEKVPYALKIETSESCLMLSASSCAERDEWYGCLSRALPEDYKAQALAAFHHSVEIRERLGVSLGERPPTLVPVTHVMMCMNCGCDFSLTLRRHHCHACGKIVCRNCSRNKYPLKYLKDRMAKVCDGCFGELKKRGRAVPGLMRERPVSMSFPLSSPRFSGSAFSSVFQSINPSTFKKQKKVPSALTEVAASGEGSAISGYLSRCKRGKRHWKKLWFVIKGKVLYTYMASEDKVALESMPLLGFTIAPEKEEGSSEVGPIFHLYHKKTLFYSFKAEDTNSAQRWIEAMEDASVL",binding result,no binding
